Reference: article PMC10164081
Where no end group is shown, it is not given here.

Tests used:
[1] = target: Gαolf (human) (UniProt P38405)
[2] = target: purified Ric-8B (peptide-binding thermal shift assay) (mouse) (UniProt Q80XE1); assay: differential scanning fluorimetry

Chain of Gαolf (human) (P38405 whole entry): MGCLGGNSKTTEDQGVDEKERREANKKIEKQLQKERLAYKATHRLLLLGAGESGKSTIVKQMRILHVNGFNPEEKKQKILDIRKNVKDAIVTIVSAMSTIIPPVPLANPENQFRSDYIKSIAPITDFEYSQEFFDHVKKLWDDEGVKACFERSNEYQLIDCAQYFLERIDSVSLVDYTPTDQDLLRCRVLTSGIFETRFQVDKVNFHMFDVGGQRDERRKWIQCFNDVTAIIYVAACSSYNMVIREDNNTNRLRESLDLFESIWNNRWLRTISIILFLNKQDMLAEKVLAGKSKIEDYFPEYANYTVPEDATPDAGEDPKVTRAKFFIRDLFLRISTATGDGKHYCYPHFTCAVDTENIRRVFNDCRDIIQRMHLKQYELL

B1: Ric-8B F126A (natural protein)
chain: MDEERALYIVRAGEAGAIERVLRDYSDKHRATFKFESADEDKRKKLCEGIFKVLVKEVPTTCQVSCLEVLRILSRDKKILVPVTTKENMQILLRLAKLHESDDSLEKVSEFPVIVESLKCLCNIVANSQMAQQLSLELNLAAKLCNLLRKCKDRKFINDIKCFDLRLLFVLSLLHTDIRSQLRYELQGLPLLTQILESAFSIKWTDEYESAIDHNGPPLSPQETDCAIEALKALFNVTVDSWKVHKESDSHQFRVMAAVLRHCLLIVGPTEDKTEELHSNAVNLLSNVPVSCLDVLICPLTHEETAQEAATLDELPSDKTTEKDTALKNSTMVYNGMNMEAIHVLLNFMEKRIDKGSSYREGLTPVLSLLTECSRAHRNIRKFLKDQVLPPLRDVTNRPEVGSTVRNKLVRLMTHVDLGVKQIAAEFLFVLCKERVDSLLKYTGYGNAAGLLAARGLLAGGRGDNWYSEDEDTDTEEYKNAKP
folding of the Gαolf-RLuc sensor (luminescence) in RIC-8B knockout HEK293T cells [1]: 20 % reduction

B2: Ric-8B R166A (natural protein)
chain: MDEERALYIVRAGEAGAIERVLRDYSDKHRATFKFESADEDKRKKLCEGIFKVLVKEVPTTCQVSCLEVLRILSRDKKILVPVTTKENMQILLRLAKLHESDDSLEKVSEFPVIVESLKCLCNIVFNSQMAQQLSLELNLAAKLCNLLRKCKDRKFINDIKCFDLALLFVLSLLHTDIRSQLRYELQGLPLLTQILESAFSIKWTDEYESAIDHNGPPLSPQETDCAIEALKALFNVTVDSWKVHKESDSHQFRVMAAVLRHCLLIVGPTEDKTEELHSNAVNLLSNVPVSCLDVLICPLTHEETAQEAATLDELPSDKTTEKDTALKNSTMVYNGMNMEAIHVLLNFMEKRIDKGSSYREGLTPVLSLLTECSRAHRNIRKFLKDQVLPPLRDVTNRPEVGSTVRNKLVRLMTHVDLGVKQIAAEFLFVLCKERVDSLLKYTGYGNAAGLLAARGLLAGGRGDNWYSEDEDTDTEEYKNAKP
folding of the Gαolf-RLuc sensor (luminescence) in RIC-8B knockout HEK293T cells [1]: 59 % decrease

NDCRDIIQRMHLRQLMLQ-NH2 [Gαs/Gα13 C-term chimera amidated peptide]
maximal thermal shift (ΔTm) [2]: 4.8 °C
